Experimental data from IntAct's records for PubMed 18923418.

B1: Ras GTPase-activating-like protein IQG1 (Candida albicans (strain SC5314 / ATCC MYA-2876)), Q5AH02 (parent)
chain: MAIGNIAARYLSSLEETDTTATTTTTTTSNVLQPSNRLNSPTKFNRKSLDNNSQDLDALARALNITPSKPETPTSISKGSATSLLRTKFESPSATVSSFKSTSSSNGVSPTKKNHFVEITSDETPSWANKNYKDILNKSPTKFNTQSNVHTPLKQLNQPIGTPSSSSLSPAKNASKSSPGYEYLCRIEAIKQWLESVLQEQITQSASQLISYIRNGIHLAKLANVVLPTSKPVFLNDSKLQFKHTENINRFFQLLDFFNMPDLFRFELTDLYDAKNVPKVWFCLHALSYILHKQDPSYPAMNNLVGKVDFSADDIRTANRALVNSPLPNFSSADTGEGKSDTSNNNSSTTSATAAFMDKVTSPVKKTPSPLKRPQQLQKKQLELVEDNKPELTQDSSGLSKISRDDPFTDRVDLAPPSTSNAKLELHTPPSKSLEFKIKSPIIDLSHRDSDYYTPELESHLPNIIKFQSLARGAVFRYLMFVDRILLKSYQDEFTNLFAIIRGNKARRKTVHKHRDELRLYSFEIIELQSIIRKNFVINKKPNFTSITNDVETVELQSLIRGKLTRDWKKYVTNGLEKFTPQIIDFQSLVRMKSIYSKSNKVISYKDEILPSLIELQSIARSQLYHRFSRSNAIDETEIIKIQSIIRRNAVIEDLYTKLSKVRSNKRRLIELQSIARGGVARTKLCNSVLVTLIYEDGILNQLFAKIRGDNYRKKFNSQKSELLKYEKSSIIPVQTLFRGVLSRYTKEVTLSDIFDQIDSVITLQSVARGKLMRGSIYEFSDYYQKHIKQVVKAQAILQRVFAQNAYKQLITSKNPPLKVIRRFAPLLSNNDRDFQDEMTLSDLKDLIIEKCKANEEYENQIEQLDMKLGLLDKNKISIEEFLKPTKGKTFKPIVENVKNLERLNKSLKKKIELWQTLFYFIQTNPIYLTKLFNSIPYTKNQTKSGQDLFQSVIQLFPVRDSSITYHSREEYFLVKLMIQLMQNDTANSNNLGDITKLHLTNWIDFFTNFNNHTFQRQHLKALLGKFVIRIVDNEQVDFESDPIRIYNQIIDHEMKVYGRSEKSRDISPQAAIQLPEVSNKFVGNLMSLRETCSDLLSMLQKNASGNKALLQIPDHVKLICRQGYLCAQRKFPDKSDQQHLAVAGVIFVKHYLGSILQVPENYGILTGNNDTQKAKSKDNLRYLYRVMLQLFSMKPFNDNFLKPLNEYIMASTDTVKSIISQAIINVGEIETVYELHDYDDLVTHQRPKLTISVNSLIQLEKSILQNVDIITTGNDDQLYKTCVEVEKLLISPQDMLTLTDLSSVTLNLNPTTQEESIVDSKTKTLFTQAKRCLLYIIRVQEEDDSDDLLELLISGIKPSHEQRFKEIVQYEKAEQDISLNNSKSVTANTVNKKKSTRPYSGTSLGDLSNLTYHELKKMCLEIILKLESMGELTRKNSFQTLLNQIAMDIKTKDSQRQCRWQQLQVSQKTIKKLSEKENYLKTQLHNYKKHVESVLLELQSKSKSNDKNWKRRLFNIMVIPVFSKQYFYHRELRKHNRLPKFGSYKYSAKKLIDQKVLIDFSTANNVATASKLDFMFSCHQVGKFTIEVASGTVNIPGATNTITLDELLALQYENKTKFELFDGMATFDSNNFMGLIFRKFYDLKKE
B2: Ras GTPase-activating-like protein IQG1 (Candida albicans (strain SC5314 / ATCC MYA-2876)), Q5AH02 (parent)
chain: B1 chain
partner: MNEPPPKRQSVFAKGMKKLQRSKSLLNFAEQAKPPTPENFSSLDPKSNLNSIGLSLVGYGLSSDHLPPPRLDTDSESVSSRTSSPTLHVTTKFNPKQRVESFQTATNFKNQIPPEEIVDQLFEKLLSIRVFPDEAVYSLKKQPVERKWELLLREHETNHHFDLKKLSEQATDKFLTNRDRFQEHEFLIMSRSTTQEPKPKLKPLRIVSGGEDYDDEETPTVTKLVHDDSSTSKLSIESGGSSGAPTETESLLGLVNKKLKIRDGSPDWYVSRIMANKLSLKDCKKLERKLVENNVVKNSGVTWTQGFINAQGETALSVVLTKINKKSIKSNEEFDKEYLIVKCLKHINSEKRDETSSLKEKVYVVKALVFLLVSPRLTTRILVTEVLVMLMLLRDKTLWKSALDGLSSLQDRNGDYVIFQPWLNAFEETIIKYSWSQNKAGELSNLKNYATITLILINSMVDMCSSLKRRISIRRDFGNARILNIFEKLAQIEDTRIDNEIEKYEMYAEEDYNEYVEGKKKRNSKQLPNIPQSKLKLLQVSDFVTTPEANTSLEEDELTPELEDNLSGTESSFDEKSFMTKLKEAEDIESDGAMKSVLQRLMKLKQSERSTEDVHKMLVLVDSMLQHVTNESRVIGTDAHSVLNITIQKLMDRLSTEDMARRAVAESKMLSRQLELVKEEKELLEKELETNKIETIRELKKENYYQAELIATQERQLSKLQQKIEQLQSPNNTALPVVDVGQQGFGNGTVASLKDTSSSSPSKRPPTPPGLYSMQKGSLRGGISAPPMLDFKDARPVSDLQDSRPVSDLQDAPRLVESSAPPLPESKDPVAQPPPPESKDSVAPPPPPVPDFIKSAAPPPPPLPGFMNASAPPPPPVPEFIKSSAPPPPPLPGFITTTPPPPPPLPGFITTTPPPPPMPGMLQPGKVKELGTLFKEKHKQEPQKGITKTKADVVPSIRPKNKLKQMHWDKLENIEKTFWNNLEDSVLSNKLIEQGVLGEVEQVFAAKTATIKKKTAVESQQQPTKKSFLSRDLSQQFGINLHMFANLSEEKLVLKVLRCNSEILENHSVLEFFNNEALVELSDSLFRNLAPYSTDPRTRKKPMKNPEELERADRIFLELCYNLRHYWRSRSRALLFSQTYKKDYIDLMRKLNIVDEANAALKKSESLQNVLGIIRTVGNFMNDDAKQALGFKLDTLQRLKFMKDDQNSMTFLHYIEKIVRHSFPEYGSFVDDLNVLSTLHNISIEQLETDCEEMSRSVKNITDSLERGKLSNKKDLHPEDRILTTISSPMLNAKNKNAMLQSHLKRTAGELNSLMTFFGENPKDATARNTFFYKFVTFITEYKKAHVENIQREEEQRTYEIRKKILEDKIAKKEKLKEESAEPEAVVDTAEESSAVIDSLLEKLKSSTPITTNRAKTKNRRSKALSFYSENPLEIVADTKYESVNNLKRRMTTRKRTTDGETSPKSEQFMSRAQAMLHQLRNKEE

Variants of: B1
Settings: with bni1_canal BNI1, Q5AL52
bni1_canal BNI1, Q5AL52, sequence (Q5AL52 whole entry): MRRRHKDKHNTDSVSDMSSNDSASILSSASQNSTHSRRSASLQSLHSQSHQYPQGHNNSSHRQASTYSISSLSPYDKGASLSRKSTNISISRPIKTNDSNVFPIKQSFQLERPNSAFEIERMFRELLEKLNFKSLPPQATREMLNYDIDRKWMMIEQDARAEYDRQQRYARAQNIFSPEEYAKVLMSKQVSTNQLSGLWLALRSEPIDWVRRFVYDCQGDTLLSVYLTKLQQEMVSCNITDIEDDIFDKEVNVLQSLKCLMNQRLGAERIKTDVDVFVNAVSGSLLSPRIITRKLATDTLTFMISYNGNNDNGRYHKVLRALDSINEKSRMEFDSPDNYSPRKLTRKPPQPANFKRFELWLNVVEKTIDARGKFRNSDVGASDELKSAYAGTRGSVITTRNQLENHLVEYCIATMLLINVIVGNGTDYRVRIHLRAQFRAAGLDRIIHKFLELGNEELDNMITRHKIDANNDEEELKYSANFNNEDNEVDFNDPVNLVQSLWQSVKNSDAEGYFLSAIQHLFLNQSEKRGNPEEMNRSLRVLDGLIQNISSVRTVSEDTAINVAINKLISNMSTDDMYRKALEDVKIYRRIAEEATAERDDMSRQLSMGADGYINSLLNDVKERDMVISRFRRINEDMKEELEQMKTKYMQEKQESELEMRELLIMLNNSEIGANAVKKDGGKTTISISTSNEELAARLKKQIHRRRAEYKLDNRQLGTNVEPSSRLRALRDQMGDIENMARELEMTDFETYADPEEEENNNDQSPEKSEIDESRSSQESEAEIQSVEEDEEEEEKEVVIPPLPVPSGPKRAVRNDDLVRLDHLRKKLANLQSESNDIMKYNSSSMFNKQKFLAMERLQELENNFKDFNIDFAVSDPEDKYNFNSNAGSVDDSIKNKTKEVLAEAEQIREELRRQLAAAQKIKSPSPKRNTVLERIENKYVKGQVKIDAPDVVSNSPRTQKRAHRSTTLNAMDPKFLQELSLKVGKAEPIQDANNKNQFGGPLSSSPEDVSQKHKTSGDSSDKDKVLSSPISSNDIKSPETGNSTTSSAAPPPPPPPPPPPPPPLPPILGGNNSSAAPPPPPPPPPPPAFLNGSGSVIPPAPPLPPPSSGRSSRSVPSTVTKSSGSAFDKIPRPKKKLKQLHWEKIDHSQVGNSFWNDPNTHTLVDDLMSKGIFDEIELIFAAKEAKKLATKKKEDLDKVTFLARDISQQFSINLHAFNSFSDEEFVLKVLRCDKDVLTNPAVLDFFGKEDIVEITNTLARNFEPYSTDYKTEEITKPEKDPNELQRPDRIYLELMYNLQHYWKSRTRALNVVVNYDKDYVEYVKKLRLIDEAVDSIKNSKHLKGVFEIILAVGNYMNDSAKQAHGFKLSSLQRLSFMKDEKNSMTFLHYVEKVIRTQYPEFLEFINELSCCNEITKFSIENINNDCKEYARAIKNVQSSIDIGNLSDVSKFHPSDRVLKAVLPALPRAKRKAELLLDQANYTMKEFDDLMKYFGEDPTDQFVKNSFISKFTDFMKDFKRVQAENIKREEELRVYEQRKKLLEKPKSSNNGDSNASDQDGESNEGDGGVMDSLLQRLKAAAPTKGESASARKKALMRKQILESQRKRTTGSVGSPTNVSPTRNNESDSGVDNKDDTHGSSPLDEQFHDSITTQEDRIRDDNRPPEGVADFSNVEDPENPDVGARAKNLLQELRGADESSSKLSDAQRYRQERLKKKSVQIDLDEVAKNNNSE

Variant	effect of a mutation on the interaction
E15A	disrupting interaction

Variants of: B2
Settings: with bnr1_canal BNR1, Q5AAF4

Variant	effect of a mutation on the interaction
E15A	disrupting interaction
